{"source": "patent US20190127432A1", "target": "FSH receptor on CHO-FSHR cells (Homo sapiens (Human)) (UniProt P23945)", "sequence (P23945 18-695 limits assumed, form in doubt)": "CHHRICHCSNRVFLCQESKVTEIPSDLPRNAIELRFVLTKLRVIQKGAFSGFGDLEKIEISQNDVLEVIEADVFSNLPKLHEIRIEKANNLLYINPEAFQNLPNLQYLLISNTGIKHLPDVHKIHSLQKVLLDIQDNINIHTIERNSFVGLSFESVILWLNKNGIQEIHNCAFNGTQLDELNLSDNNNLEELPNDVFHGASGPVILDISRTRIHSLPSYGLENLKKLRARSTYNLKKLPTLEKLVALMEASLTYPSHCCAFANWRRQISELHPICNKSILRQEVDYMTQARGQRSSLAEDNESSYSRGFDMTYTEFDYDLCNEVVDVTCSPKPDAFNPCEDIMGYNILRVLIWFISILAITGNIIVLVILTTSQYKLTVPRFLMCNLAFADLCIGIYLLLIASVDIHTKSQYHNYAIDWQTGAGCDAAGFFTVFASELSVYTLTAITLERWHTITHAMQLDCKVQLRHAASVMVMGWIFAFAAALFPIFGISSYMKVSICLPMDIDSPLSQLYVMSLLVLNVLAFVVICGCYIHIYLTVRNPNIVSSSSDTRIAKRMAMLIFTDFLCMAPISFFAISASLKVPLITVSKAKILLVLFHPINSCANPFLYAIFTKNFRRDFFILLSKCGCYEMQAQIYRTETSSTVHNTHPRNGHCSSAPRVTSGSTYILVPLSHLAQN", "assay": "cell-based or functional assay"}
{"substance": "Elonva (ligand)", "values": [{"measurement": "EC50 (ng/ml), cAMP stimulation in CHO-FSHR cells", "value": 4.15, "unit": "ng/mL"}, {"measurement": "Potency difference, cAMP stimulation in CHO-FSHR cells", "value": 1.3, "unit": "fold"}, {"measurement": "Vmax (%), cAMP stimulation in CHO-FSHR cells", "value": 99.3, "unit": "%"}, {"measurement": "Vmax (pmol/ml), cAMP stimulation in CHO-FSHR cells", "value": 293, "unit": "pmol/mL"}]}
